Experimental data reported in the supplement of paper PMC10567573.
± gives the standard deviation.

Assay: protein stability index of a GFP-peptide fusion (GPS, HEK-293T) (PSI 1-6); higher = more stable
[1] = treatment: DMSO, c terminus: a fixed tail appended
[2] = treatment: MLN4924 1 uM, 8 h, c terminus: a fixed tail appended
[3] = treatment: DMSO, c terminus: native
[4] = treatment: MLN4924 1 uM, 8 h, c terminus: native
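Also: 24-mer peptide tiles fused after GFP, lentivirally expressed, FACS-sorted into six equal bins by GFP/DsRed ratio, decoded by Illumina sequencing, PSI is the read-weighted mean bin number.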

Sequence	protein stability index [1]	protein stability index [2]	protein stability index [3]	protein stability index [4]
GSSDHSVIMWDIGGRKGTAIELQG [WDFY2]	2.84 ± 0.43	2.83 ± 0.2	–	–
GSSSLGFTSSPSPFSSSSPENVED [FCHO1]	5.38 ± 0.2	5.29 ± 0.19	–	–
GTCALWDVESGQLLQSFHGHGADV [GNB5]	2.75 ± 0.28	2.99 ± 0.51	–	–
GTPGTPSYPRTPHTPGTPKSAILV [MAP2]	3.1 ± 0.12	3.24 ± 0.35	–	–
GTPGYLSPEVLRKDPYGKPVDLWA [CAMK2A]	3.29 ± 0.39	3.16 ± 0.29	–	–
GTVVALLNVHDLDSEQNGQVTCSI [PCDHGA10]	2.23 ± 0.34	2.58 ± 0.24	–	–
GVEPSPSPIKPGDIKRGIPNYEFK [UFD1]	4.25 ± 0.24	4.24 ± 0.24	–	–
GVLEAPDTQVNPVGSVSVDCGPSR [FBXO34]	5.03 ± 0.31	4.89 ± 0.6	–	–
GVLTRKTHADMDGKRTPRGRRGWK [PSD2]	4.47 ± 0.29	4.53 ± 0.29	–	–
GVQKMNSKTVTSTMLGVFREDPKT [GCH1]	4.43 ± 0.45	4.05 ± 0.33	–	–
GWCSGDAISSVERYDPQTNEWRMV [KLHL20]	2.84 ± 0.24	2.95 ± 0.34	–	–
HEEFFPAFQAFTNDLLEILEIDDL [CEP70]	3.48 ± 0.21	3.43 ± 0.37	–	–
HELLLGSLQQQHQADLELIESAHR [FBF1]	4.66 ± 0.24	4.35 ± 0.21	–	–
HGHYSMHCLHSAGHSQPDGAYSSA [DLX1]	3.48 ± 0.27	3.47 ± 0.23	–	–
HGPFSGFPGPQEHTQVLPDVRLLP [DYRK1B]	3.57 ± 0.099	3.63 ± 0.21	–	–
HHHHGRDFLLRAASFDVCESVDEA [RHOBTB2]	4.04 ± 0.38	4.25 ± 0.27	–	–
HHLFPTMPRHNYHKVAPLVQSLCA [FADS1]	2.4 ± 0.32	2.51 ± 0.17	–	–
HHRYDDLVRTLYKVQNECPGITRV [CPN1]	2.69 ± 0.34	2.67 ± 0.098	–	–
HILKKYYGNGMRKSPEMPVILEVS [RTP4]	1.99 ± 0.51	2.2 ± 0.37	–	–
HKQDGKAGLFSQEQYERNKSSSSS [TMEM40]	5.3 ± 0.35	5.31 ± 0.15	–	–
HKRRRRKQKVSRIERSSSFSSITD [DVL3]	4.28 ± 0.096	4.55 ± 0.092	–	–
HLELTRKLQDLIKDVLRYGEEQLK [FCHO1]	2.95 ± 0.52	2.71 ± 0.69	–	–

Sequence	protein stability index [1]	protein stability index [2]	protein stability index [3]	protein stability index [4]
HLTSVTSESEQEFLYKTAGGLIYW [CD207]	2.33 ± 0.28	2.63 ± 0.33	–	–
HPFFFALGKILSVELGKQKKKYMP [FADS1]	–	1.89 ± 0.5	–	–
HPGRGLAGRWLWGAQPCLLLPIVP [ADAMTS4]	2.08 ± 0.7	1.92 ± 0.31	–	–
HPLHPRHRKAVHLRTRGRTRGWVQ [C6orf223]	3.15 ± 0.23	3.05 ± 0.49	–	–
HQKLEREARICRLLKHPNIVRLHD [CAMK2D]	2.51 ± 0.22	2.9 ± 0.46	–	–
HQRKHAGEKPFECRQRLIFEQTPA [ZNF8]	3.65 ± 0.2	3.64 ± 0.16	–	–
HQVPTTAGNKAALLDQIREGAQLK [WASL]	4.95 ± 0.18	4.86 ± 0.33	–	–
HRDIKPDNLLLDAKGHVKLSDFGL [STK38L]	3.27 ± 0.23	3.4 ± 0.15	–	–
HSAVLRDLRSGTLYSLTLYGLRGP [TNXB]	2.98 ± 0.63	2.68 ± 0.38	–	–
HSLQQSEPDLRHLVLVVNTLRRIQ [SERTAD1]	2.44 ± 0.33	2.61 ± 0.17	–	–
HSMRNSLESTLAETEARYSSQLAQ [KRT36]	4.53 ± 0.22	4.57 ± 0.17	–	–
HSVNRDLNELERLSNLVGKPSENH [MED27]	4.75 ± 0.18	4.71 ± 0.11	–	–
HTMRKISNNITLREDQLDTVLAVL [INTS4]	2.39 ± 0.27	2.35 ± 0.21	–	–
HTRQLISCGGDGGIVVWNMDVERQ [WDFY2]	2.55 ± 0.36	2.4 ± 0.14	–	–
HVINQGMAMYWGTSRWSSMEIMEA [KCNAB2]	2.67 ± 0.53	2.42 ± 0.21	–	–
HVKIVKLLLAHKADVNAQSSTGNT [ANKRD17]	2.32 ± 0.26	2.36 ± 0.22	–	–
HVPNPPSGISFPSVVDHPMPEERA [HESX1]	3.48 ± 0.74	3.99 ± 0.52	–	–
HWFRKGLRLHDNPALKECIQGADT [CRY1]	3.11 ± 0.19	3.45 ± 0.38	–	–
IALGQMLSLCICGTAITSQYLAER [SLC35F2]	3.37 ± 0.27	2.48 ± 0.16	–	–
IATYRSLLEGQDAKMAGIGIREAS [KRT15]	3.09 ± 0.23	3.25 ± 0.1	–	–
IDALLEFDVHPNELTNGVINAAFM [SNAP91]	2.39 ± 0.38	2.32 ± 0.36	–	–
IDTVYSTAFAPKMIVDLLSEKKTI [OR4A15]	2.37 ± 0.19	2.52 ± 0.26	–	–

Sequence	protein stability index [1]	protein stability index [2]	protein stability index [3]	protein stability index [4]
IEEGFNPVQASQLEEEFDSDSGLS [NFE2L1]	5.37 ± 0.25	5.44 ± 0.16	–	–
IFAQGAPRSSLAESFFVDYEENEG [ADAMTSL2]	4.05 ± 0.067	4.98 ± 0.26	–	–
IFLGFSSLARLQQLLFVIFLLLYL [OR10K2]	2.65 ± 0.58	2.31 ± 0.52	–	–
IGATFTDWFTSYVKNVVSGGFPII [FBXO3]	2.65 ± 0.84	2.7 ± 0.76	–	–
IGGLLGATFNCLNKRLAKYRMRNV [CLCN6]	2.34 ± 0.2	2.2 ± 0.53	–	–
IGIEAKNLASYDVCSILLGTSTLL [MCOLN1]	2.84 ± 0.7	2.92 ± 0.66	–	–
IGREGAKDSYDFFTEIKTITVKH [ALDH8A1]	–	–	2.35 ± 0.43	2.42 ± 0.25
IKAEPASPDSPKGSSETETEPPVA [ESRRA]	5.58 ± 0.17	5.62 ± 0.11	–	–
IKEQEVCKLQEQLEATVKKLEESK [SASS6]	5.1 ± 0.27	5.05 ± 0.25	–	–
IKLFACYNDGVINLLEKFFEMKKG [SNAP91]	2.39 ± 0.57	2.48 ± 0.37	–	–
IKVKPKRVGIFLDYEAGTLSFYNV [TRIM39]	2.54 ± 0.54	2.61 ± 0.48	–	–
ILAQQPDRLRDEELAELEDALRNL [TRADD]	5.29 ± 0.22	4.94 ± 0.17	–	–
ILGRTFFIYDCDPFTRRYYKEKFG [EFHC1]	2.52 ± 0.63	2.24 ± 0.63	–	–
ILKRKWWKYILLGLADVEANYVIV [SLC35F2]	2.55 ± 0.5	2.23 ± 0.76	–	–
ILLESHMVMIRGNSGLKPKDNEFT [POMT2]	2.21 ± 0.31	2.15 ± 0.21	–	–
ILNTTGTYSGKAADVWSLGVMLYT [TRIB1]	2.7 ± 0.76	2.25 ± 0.6	–	–
ILRFIYSGAFQWEELEEDIRKKLK [RHOBTB3]	2.25 ± 0.27	2.48 ± 0.53	–	–
ILSFILAIPEAIGFVMVPFEYRGE [EDNRA]	3.6 ± 0.94	3.15 ± 0.51	–	–
IMIIICCVILGIVIASTVGGIFA [STX1A]	–	–	3.62 ± 0.33	3.79 ± 0.14
INAAFMLLFKDLIKLFACYNDGVI [SNAP91]	2.9 ± 0.54	3.39 ± 0.65	–	–
IRKYNYVAMDTEFPGVVARPIGEF [CNOT7]	2.21 ± 0.19	2.16 ± 0.2	–	–
